# Measured values as given in PMC9622684, “Characterization of an Escherichia coli-derived triple-type chimeric vaccine against human papillomavirus types 39, 68 and 70” (NPJ Vaccines, 2022).
# How the values were obtained:
# [1] = molecular target: HPV68 L1 (0–505 aa), wild-type L1-only virus-like particle (human papillomavirus type 68); experiment: cryo-EM structure; VLPs (~2.0 mg/mL) vitrified on Quantifoil grids; icosahedral 3D reconstruction (AUTO3DEM or cisTEM)
# [2] = molecular target: the molecule itself; experiment: as above
Molecule,stoichiometry N [1],stoichiometry N [2]
"HPV68 L1 (0–505 aa), wild-type L1-only virus-like particle (natural protein)",72 pentamers,–
"HPV70 L1 (10–506 aa), wild-type L1-only virus-like particle (domain or fragment, human papillomavirus type 70, UniProt P50793 10-504, looked up, Major capsid protein L1 of human papillomavirus type 70, residues 10-506 as printed; chosen from full-length and 5-, 10-, 15-aa N-terminal truncations; Non-fusion expression, no tag; Copies: 72 pentamers (T = 7 capsid) as printed, i.e. 360 chains; also called WT HPV70; HPV70 VLP; source: E. coli ER2566 (pTO-T7), purified (SP or XS sepharose; self-assembly on removal of DTT, Superdex 200); copies: …) TVYLPPPSVAKVVNTDDYVTRTGIYYYAGSSRLLTVGHPYFKVPVNGGRKQEIPKVSAYQYRVFRVSLPDPNKFGLPDPSLYNPDTQRLVWACIGVEIGRGQPLGVGVSGHPLYNRLDDTENSHFSSAVSTQDSRDNVSVDYKQTQLCIIGCVPAMGEHWAKGKACKSTQQGDCPPLELVNTAIEDGDMIDTGYGAMDFRTLQETKSEVPLDICQSVCKYPDYLQMSADVYGDSMFFCLRKEQLFARHFWNRGGMVGDTIPSELYIKGTDIRERPGTHVYSPSPSGSMVSSDSQLFNKPYWLHKAQGHNNGICWHNQLFITVVDTTRSTNFTLSACTETAIPAVYSPTKFKEYTRHVEEYDLQFIFQLCTITLTADVMAYIHTMNPAILDNWNIGVTPPPSASLVDTYRYLQSAAIACQKDAPTPEKKDPYDDLKFWNVDLKEKFSTELDQFPLGRKFLLQVGARRRPTIGPRKRPASAKSSSSASKHKRKRVSK",–,72 pentamers
"HPV39 L1 (15–505 aa), wild-type L1-only virus-like particle (domain or fragment, Major capsid protein L1 of human papillomavirus type 39, residues 15-505 as printed; chosen from full-length and 5-, 10-, 15-aa N-terminal truncations; Non-fusion expression, no tag; Copies: 72 pentamers (T = 7 capsid) as printed, i.e. 360 chains; also called WT HPV39; HPV39 VLP; source: E. coli ER2566 (pTO-T7), purified (SP or XS sepharose; self-assembly on removal of DTT, Superdex 200); copies: …) PPSVAKVVNTDDYVTRTGIYYYAGSSRLLTVGHPYFKVGMNGGRKQDIPKVSAYQYRVFRVTLPDPNKFSIPDASLYNPETQRLVWACVGVEVGRGQPLGVGISGHPLYNRQDDTENSPFSSTTNKDSRDNVSVDYKQTQLCIIGCVPAIGEHWGKGKACKPNNVSTGDCPPLELVNTPIEDGDMIDTGYGAMDFGALQETKSEVPLDICQSICKYPDYLQMSADVYGDSMFFCLRREQLFARHFWNRGGMVGDAIPAQLYIKGTDIRANPGSSVYCPSPSGSMVTSDSQLFNKPYWLHKAQGHNNGICWHNQLFLTVVDTTRSTNFTLSTSIESSIPSTYDPSKFKEYTRHVEEYDLQFIFQLCTVTLTTDVMSYIHTMNSSILDNWNFAVAPPPSASLVDTYRYLQSAAITCQKDAPAPEKKDPYDGLKFWNVDLREKFSLELDQFPLGRKFLLQARVRRRPTIGPRKRPAASTSSSSATKHKRKRVSK",–,72 pentamers
